Molecular target: Recombinant human urokinase-type plasminogen activator receptor (uPAR) (human) (UniProt Q03405)
Test: SPR

Sequence of UniProt Q03405 (Q03405 23-305): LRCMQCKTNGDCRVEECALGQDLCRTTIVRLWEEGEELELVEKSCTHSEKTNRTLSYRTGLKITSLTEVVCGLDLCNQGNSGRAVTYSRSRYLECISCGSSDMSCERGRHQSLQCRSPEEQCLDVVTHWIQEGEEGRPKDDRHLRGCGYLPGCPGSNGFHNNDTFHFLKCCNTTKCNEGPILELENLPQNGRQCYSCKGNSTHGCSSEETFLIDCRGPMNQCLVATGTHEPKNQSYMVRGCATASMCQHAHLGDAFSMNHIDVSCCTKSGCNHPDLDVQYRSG

IC50 | Kd | koff | kon | Substance
6.1 nM | 27 nM | 0.0108 s⁻¹ | 400000 M⁻¹ s⁻¹ | CB-TE2A-PA-AE105 (peptide)
> 1000 nM | – | – | – | CB-TE2A-PA-AE105^mut (peptide)
5.9 nM | 7.7 nM | 0.0046 s⁻¹ | – | CB-TE2A-AE105 (peptide)
> 1000 nM | – | – | – | CB-TE2A-AE105^mut (peptide)

The next lines start with the substance.

Substance | IC50 | Kd | koff | kon
DOTA-AE105^mut (peptide) | > 1000 nM | – | – | –
AE105 (Asp-Cha-Phe-(D)Ser-(D)Arg-Tyr-Leu-Trp-Ser) (peptide) | 6.7 nM | – | – | 620000 M⁻¹ s⁻¹
DOTA-AE105 (peptide) | 6.7 nM | 9.4 nM | 0.0043 s⁻¹ | 460000 M⁻¹ s⁻¹

— publication PMC3776215
